Assay results as given in US20240343823A1 (Ablynx, published 2024).

Assays:
[1] = target: T1, human GPC3 on tumor cell lines (HepG2, Huh-7, NCI-H661, MKN-45, NCI-H23, BxPC-3, NCI-H292) (human, UniProt P51654 25-554); assay: flow cytometry on Huh-7 cells
T1 construct: Endogenous GPC3 of human cancer cell lines; also called GPC3 on HepG2; GPC3 on Huh-7

[2] = target: T2, Recombinant human GPC4/hFc (R&D Systems, cat no 9195-GP) (human, UniProt O75487 19-529, limits assumed); assay: SPR ProteOn XPR36, GPC4/hFc captured on anti-human IgG1
T2 construct: Bought; not shown: captured with anti-human IgG1
T2 sequence (looked up): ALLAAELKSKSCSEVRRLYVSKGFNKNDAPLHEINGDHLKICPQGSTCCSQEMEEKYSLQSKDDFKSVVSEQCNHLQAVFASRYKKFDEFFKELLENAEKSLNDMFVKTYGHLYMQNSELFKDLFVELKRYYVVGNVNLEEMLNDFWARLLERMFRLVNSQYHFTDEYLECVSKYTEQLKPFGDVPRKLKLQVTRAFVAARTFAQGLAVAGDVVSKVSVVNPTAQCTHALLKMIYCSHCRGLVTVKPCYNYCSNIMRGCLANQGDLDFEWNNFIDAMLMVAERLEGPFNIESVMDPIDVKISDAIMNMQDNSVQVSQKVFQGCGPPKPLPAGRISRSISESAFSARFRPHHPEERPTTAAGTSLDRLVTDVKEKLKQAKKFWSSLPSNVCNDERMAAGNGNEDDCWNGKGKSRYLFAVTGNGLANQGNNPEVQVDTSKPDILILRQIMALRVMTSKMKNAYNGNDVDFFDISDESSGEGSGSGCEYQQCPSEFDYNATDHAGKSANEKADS
From the text: Data was double referenced by subtracting a reference ligand lane and a blank buffer injection.

[3] = target: T3, cyno TCRab, in house produced (extracellular domains fused to a zipper peptide) (cynomolgus); assay: SPR ProteOn XPR36, TCRab immobilized by amine coupling, 1:1 model
T3 construct: Numbering of the four differences is not explained; not shown: variable domains, if any; any residues beyond C131 of the beta chain
T3 alpha: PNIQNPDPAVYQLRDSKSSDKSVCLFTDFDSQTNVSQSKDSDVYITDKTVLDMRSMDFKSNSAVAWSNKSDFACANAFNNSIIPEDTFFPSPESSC
T3 beta: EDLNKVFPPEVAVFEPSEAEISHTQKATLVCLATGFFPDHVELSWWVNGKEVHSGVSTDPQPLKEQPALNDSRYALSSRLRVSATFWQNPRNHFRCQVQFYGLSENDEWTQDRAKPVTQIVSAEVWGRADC
Description: Recombinant TCR proteins were immobilized on a GLC Sensor Chip (Biorad) via amine coupling, using EDC and NHS chemistry (running buffer: HBS-EP+, pH 7.4). Purified ISVDs were injected for 2 minutes (flow rate 45 μL/min) at different concentrations (between 0.2 nM and 200 nM) and dissociation was followed for 900 s. Regeneration was performed by injecting 3 M MgCl₂ for 3 minutes (flow rate 90 μL/min). Data was double referenced by subtracting a reference ligand lane and a blank buffer injection. Processed sensorgrams were analyzed based on the 1:1 interaction model (Langmuir binding model) using ProteOn Manager 3.1.0 (Version 3.1.0.6) software.

[4] = target: T4, human GPC3 expressed on CHO Flp-In cells (human, UniProt P51654 25-554); assay: flow cytometry on cells expressing GPC3; upper end tied by Table 21 to CHO human GPC3
T4 construct: On cells; Q25-R358, S359-H580; also called hGPC3 CHO; CHO huGPC3

[5] = target: T5, TCRab on primary human T cells (human, UniProt P01848 1-140; P01850 1-176); assay: competition flow cytometry on primary human T cells, competitor T017000624 at EC30 (2E-08 M)
T5 construct: whole, on cells; T cells isolated from buffy coats; also called Primary hu T cells; human TCR
T5 TCR alpha (looked up): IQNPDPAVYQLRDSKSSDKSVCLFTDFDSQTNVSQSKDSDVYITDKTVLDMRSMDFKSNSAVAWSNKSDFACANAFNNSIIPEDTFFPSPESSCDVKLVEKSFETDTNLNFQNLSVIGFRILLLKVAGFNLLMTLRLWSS
T5 TCR beta (looked up): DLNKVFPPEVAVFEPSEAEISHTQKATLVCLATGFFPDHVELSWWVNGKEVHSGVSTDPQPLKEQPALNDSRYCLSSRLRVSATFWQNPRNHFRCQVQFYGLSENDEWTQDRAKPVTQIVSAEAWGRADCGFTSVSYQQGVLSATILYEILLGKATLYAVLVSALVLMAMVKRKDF
Description: T cells (human T cells obtained as described in Example 3 and cyno T cells purchased from LPT laboratory, Germany) were thawed and counted on the day of the assay and diluted to a concentration of 1E+06 cells/mL, before adding 75 μL to the wells of a V-bottom 96-well plate (Greiner, cat no 651180). Cells were washed once with cold FACS buffer, before adding 25 μL Nb and 25 μL competitor to the wells. […] Cells were resuspended and plates were incubated at 4° C. for 90 minutes, after which plates were washed twice in cold FACS buffer. Cells were resuspended in 50 μl 1/1000 diluted Monoclonal ANTI-FLAG® M2 (Sigma Aldrich, cat no F1804) in FACS buffer and incubated at 4° C. for 30 minutes. Plates were washed twice in cold FACS buffer. […] Plates were washed twice in cold FACS buffer. Cells were resuspended in 55 μL 1/1000 diluted Propidium Iodide (Sigma-Aldrich, cat no P4170) in FACS buffer before acquiring data on the MACSQuant X (Miltenyi biotec).

B1: A022600424 (other)
chain: DVQLVESGGGVVQPGGSLRLSCVASGYVHKINFYGWYRQAPGKEREKVAHISIGDQTDYADSAKGRFTISRDESKNTVYLQMNSLRPEDTAAYYCRALSRIWPYDYWGQGTLVTVSSGGGGSEVQLVESGGGVVQPGGSLRLSCAASGFTFSSFAMTWVRRPPGKGLEWVATITNKGVTSYADSVKGRFTISRDNAKNTLYLQMNSLRPEDTALYICANARRTGPRAPTDIGSYRGQGTLVTVSSGGGGSGGGSEVQLVESGGGVVQPGGSLRLSCAASGSIFRSVFSSSTMEWYRQAPGKKRELVARIAPGEGTYYGALYADSVKGRFTISRDNAKNTVYLQMNSLRPEDTALYYCASGVAWGQGTLVTVSSGGGGSGGGSEVQLVESGGGVVQPGGSLRLSCAASGFTFRSFGMSWVRQAPGKGPEWVSSISGSGSDTLYADSVKGRFTISRDNSKNTLYLQMNSLRPEDTALYYCTIGGSLSRSSQGTLVTVSSA
notes: Trispecific tetravalent ISVD (VHH) T-cell engager: anti-TCR, two anti-GPC3 (biparatopic), anti-albumin; also called TCE01-5GS-A022600351-9GS-A022600314-9GS-ALB23002-A
[1]
  EC50: 1.25 nM
[2]
  binding result: no binding (tested: between 4 nM and 1000 nM)
[3]
  Kd: 5.4 nM
[4]
  EC50: 1 to 2 nM
[5]
  IC50: 170 nM
